The Human Domainome abundance scans (Beltran et al. 2025)

B1: DnaJ homolog subfamily C member 2, residues 451 to 503; numbered along this chain, Q99543 (parent)
chain: SKNWSEDDLQLLIKAVNLFPAGTNSRWEVIANYMNIHSSSGVKRTAKDVIGKA

Variants of: B1
Experiment: abundance fitness (aPCA) (normalised: wild type 0, dead -1); higher = more abundant; growth selection in yeast, the domain comes from the species named
Details: Homo sapiens

Abundance fitness, by site and new letter:
F19: T -0.456, D -0.948, H -0.093, P -1.11, R -0.91, S -0.622, A -0.536, E -1.06, W -0.215, M -0.572, C -0.586, Q -0.86, K -0.961, I -0.29, V -0.102, Y -0.178, L -0.602, N -0.803
L18: G -0.53, I -0.073, E -0.305, Q -0.38, W -0.547, K -0.268, C -0.222, F -0.219, H -0.272, T -0.054, P -0.807, M 0.065, A 0.043, D -0.332, S -0.273, R -0.145, Y -0.173, V -0.108
T23: H -0.147, F 0.038, G -0.262, I -0.226, A -0.267, P -0.539, S -0.276, D -0.165, L -0.221, R -0.649, M -0.221, C -0.353, Q -0.162, Y -0.201, V -0.302, K -0.587, E -0.325
G22: S 0.002, D -0.016, A -0.064, R -0.098, I -0.194, C 0.015, F -0.489, V -0.28, P -0.217, M -0.371, E 0.011, Y -0.267, T -0.065, Q -0.293, W -0.293, H -0.166, L -0.484, K -0.146
A15: W -0.682, H -0.754, F -0.847, I -0.982, T -0.519, Y -0.688, Q -1.03, V -0.511, S -0.214, D -0.777, R -0.994, M -0.83, C -0.279, N -0.984, E -0.965, P -0.724, L -0.61, G -0.182
A21: C -0.117, Y -0.265, S -0.029, I -0.185, K -0.018, L -0.079, F -0.096, T -0.016, M 0.005, R -0.054, Q 0.049, P -0.094, H 0.083, V -0.142, N -0.217, E 0.066, G -0.122, W -0.244, D -0.039
V16: E -0.042, G -0.266, L -0.067, C -0.186, R 0.002, N -0.071, H -0.25, D -0.371, W -0.268, Q 0.168, M 0.065, I 0.08, P -1.04, Y -0.028, A -0.164, K 0.18, S -0.054
N17: V -0.161, I -0.384, H -0.158, Y -0.194, D 0.12, G -0.082, T -0.016, A -0.085, P -0.875, L -0.216, F -0.353, K -0.043, W -0.348, S -0.061, Q -0.157, R -0.036
N24: A 0.14, K -0.013, G -0.276, D 0.008, E 0.07, H 0.118, I -0.09, F -0.101, C -0.166
K14: Y -0.207
P20: S -0.411, H -0.228, C -0.555, N -0.292, V -0.772, A -0.571, I -0.961, T -0.607, F -0.984, G -0.103, M -0.955, R -0.392, W -0.975, D -0.13, E -0.358, Q -0.328
